Among the data in patent US20020193568 are binding signal (fold higher affinity than wild-type) and Kd values, retold here.

Series [1] has as its target LacI Pro320Ala Pro320Ala (Escherichia coli) (UniProt P03023). To be noted: wild-type inducer responsivity.
Series [2] concerns the target LacI Gln60Gly (Escherichia coli) (UniProt P03023).
For series [3], the target named is lac repressor (LacI) wild-type (Escherichia coli) (UniProt P03023). To be noted: no inducer; assay method not stated; cited from earlier work.

pKd: −log10 of the molar value. Read-outs that look alike come from different tables or passages of the source.

In series [1], lac operator DNA (LacO) gave a binding signal (fold higher affinity than wild-type) of 10.

For lac operator O1 (LacO), the pKd (commonly the negative decadic logarithm of the Kd, by convention in mol/L) is below 7.00 in series [2] (1 mM IPTG, described as wild-type affinity under these conditions); 11.40 in series [2] (no inducer, assay method not stated, refers to Falcon and Matthews 1999, cited from earlier work); 10.92 in series [3].
